The results in this text go back to patent publication US20060177452A1 (BURNHAM INSTITUTE FOR MEDICAL RESEARCH, published 2006).

No end group written: not given here. Some results are limits rather than exact numbers.

The target in test [1] is EphB4 ectodomain fused to human Fc, carboxy-terminal hexahistidine tag (human). The test can be described thus: inhibition of ephrin-B2 AP binding to immobilized EphB4 ectodomain Fc.
The target is the same in test [2]. The test can be described thus: inhibition of ephrin-B2 AP binding to immobilized EphB4 ectodomain Fc (FIG. 6B).
The target of test [3] is T1, EphB4 ectodomain fused to human Fc, carboxy-terminal hexahistidine tag (human).
T1 chain: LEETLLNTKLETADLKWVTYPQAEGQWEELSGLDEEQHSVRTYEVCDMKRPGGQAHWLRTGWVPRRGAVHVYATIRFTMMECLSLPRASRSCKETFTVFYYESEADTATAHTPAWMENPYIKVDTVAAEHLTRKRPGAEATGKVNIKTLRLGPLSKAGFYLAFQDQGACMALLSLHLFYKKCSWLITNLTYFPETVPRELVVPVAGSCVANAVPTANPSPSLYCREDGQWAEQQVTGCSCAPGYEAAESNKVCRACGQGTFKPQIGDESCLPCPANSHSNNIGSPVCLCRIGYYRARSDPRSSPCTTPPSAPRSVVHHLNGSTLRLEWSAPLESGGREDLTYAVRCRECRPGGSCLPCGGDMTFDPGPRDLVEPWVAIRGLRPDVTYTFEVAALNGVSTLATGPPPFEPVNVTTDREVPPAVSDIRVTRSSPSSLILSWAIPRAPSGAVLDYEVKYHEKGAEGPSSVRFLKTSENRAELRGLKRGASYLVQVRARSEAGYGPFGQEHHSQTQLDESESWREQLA
The test can be described thus: phage ELISA on immobilized EphB Fc. For orientation: ELISA stands for enzyme-linked immunosorbent assay.

Test [4] deals with T2, EphB2 ectodomain fused to human Fc, carboxy-terminal hexahistidine tag (human).
T2 chain: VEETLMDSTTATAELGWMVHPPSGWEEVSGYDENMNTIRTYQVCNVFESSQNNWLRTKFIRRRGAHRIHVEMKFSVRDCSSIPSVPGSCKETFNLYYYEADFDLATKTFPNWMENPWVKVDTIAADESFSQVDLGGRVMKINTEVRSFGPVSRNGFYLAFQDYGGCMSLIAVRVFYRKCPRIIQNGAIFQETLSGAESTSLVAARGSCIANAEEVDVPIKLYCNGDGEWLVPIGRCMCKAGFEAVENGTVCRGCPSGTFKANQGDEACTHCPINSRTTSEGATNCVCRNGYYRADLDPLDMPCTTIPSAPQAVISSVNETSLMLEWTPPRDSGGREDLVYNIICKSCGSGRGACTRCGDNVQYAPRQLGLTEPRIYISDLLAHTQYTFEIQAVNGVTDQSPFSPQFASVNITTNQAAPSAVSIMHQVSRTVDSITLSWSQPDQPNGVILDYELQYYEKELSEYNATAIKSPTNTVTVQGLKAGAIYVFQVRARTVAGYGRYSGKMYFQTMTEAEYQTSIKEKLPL
The test can be described thus: inhibition of ephrin-B2 AP binding to immobilized EphB2 ectodomain Fc; biotinylated peptide.

For test [5], the target named is T2, EphB2 ectodomain fused to human Fc, …. The test can be described thus: phage ELISA on immobilized EphB Fc.
Test [6] concerns the target T3, endogenous EphB4 of MCF7 human breast cancer cells (human, UniProt P54760 16-987).
T3 construct: whole, on cells; In pull-downs it stood in cell lysates; also called endogenous EphB4 (MCF-7)
T3 sequence (looked up): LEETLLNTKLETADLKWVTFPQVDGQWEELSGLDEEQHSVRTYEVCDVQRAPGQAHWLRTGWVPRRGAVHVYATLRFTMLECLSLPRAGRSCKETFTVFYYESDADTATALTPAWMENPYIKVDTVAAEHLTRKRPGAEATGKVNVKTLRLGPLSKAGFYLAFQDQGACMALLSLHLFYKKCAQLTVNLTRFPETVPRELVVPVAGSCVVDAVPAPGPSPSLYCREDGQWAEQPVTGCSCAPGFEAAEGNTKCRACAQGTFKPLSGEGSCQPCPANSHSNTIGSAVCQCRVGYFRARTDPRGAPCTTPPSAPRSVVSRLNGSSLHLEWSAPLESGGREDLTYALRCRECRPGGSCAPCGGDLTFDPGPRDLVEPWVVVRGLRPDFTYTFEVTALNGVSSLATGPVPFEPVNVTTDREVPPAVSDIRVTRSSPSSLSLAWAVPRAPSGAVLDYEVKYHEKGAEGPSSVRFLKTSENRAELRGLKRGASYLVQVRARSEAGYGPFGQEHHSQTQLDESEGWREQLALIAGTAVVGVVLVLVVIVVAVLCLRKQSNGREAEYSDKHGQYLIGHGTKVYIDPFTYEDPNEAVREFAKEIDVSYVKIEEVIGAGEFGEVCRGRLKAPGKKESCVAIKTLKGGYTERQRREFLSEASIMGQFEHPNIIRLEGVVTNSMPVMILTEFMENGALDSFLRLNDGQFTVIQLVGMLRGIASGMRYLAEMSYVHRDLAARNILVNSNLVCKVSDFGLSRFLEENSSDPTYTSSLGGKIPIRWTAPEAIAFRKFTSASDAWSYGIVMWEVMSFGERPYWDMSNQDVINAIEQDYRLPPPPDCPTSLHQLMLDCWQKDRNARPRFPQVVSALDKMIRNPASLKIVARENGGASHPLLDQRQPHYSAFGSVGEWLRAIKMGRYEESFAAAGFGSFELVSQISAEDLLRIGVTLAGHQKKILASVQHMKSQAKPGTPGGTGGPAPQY
The test can be described thus: biotinylated TNYL and streptavidin quantum dots, fluorescence microscopy of MCF-7 cells.

The target in test [7] is T1, EphB4 ectodomain fused to human Fc, …. The test can be described thus: inhibition of ephrin-B2 AP binding to immobilized EphB4 ectodomain Fc; biotinylated peptide.
For test [8], the target named is EphB1 ectodomain fused to human Fc, carboxy-terminal hexahistidine tag (human). The test can be described thus: inhibition of ephrin-B2 AP binding to immobilized EphB1 ectodomain Fc; biotinylated peptide.
Test [9] concerns the target T1, EphB4 ectodomain fused to human Fc, …. The test can be described thus: inhibition of ephrin-B2 AP binding to immobilized EphB4 ectodomain Fc (FIG. 6A).

The IC50 is the point on the concentration scale where inhibition reaches its midpoint.

Take ephrin-B2 Fc (Fc fusion): the figures for the IC50 in [1] and in [2] were 0.009 µM and 9 µM, respectively. Regarding SGHQLLNKMPN (coat-protein fusion not described), the “% Binding” value in test [3] came out at 100%.

B1: DHWRI peptide, synthetic, biotinylated (peptide)
peptide: DHWRILPFSLSSGSGS
modifications: also: C-terminal biotin, via GSGSK Lys side chain or biotinyl-ethylenediamine, not settled
Molecule B1 gave a 50% inhibitory concentration (IC50) in [4] greater than 100 µM. With LPHGPVAAWDA (coat-protein fusion not described), the “% Binding” value turned out to be 15% in [5] and 100% in test [3].

As for TNYLFSPNGPIAGSGS (also: C-terminal biotin on linker (form not given here), also called biotinylated TNYL) [TNYL peptide, synthetic, biotinylated], in test [6], the binding result is “binds”. The IC50 in [7] was roughly 50 µM.

B2: AHTF peptide, synthetic, biotinylated (peptide)
peptide: AHTFPYPHPKPHGSGS
modifications: C-terminal biotin: on the Lys side chain of a GSGSK linker, or N-biotinyl-ethylenediamine after GSGS (which one is not stated)
Turning to B2, the IC50 in test [8] amounted to 150 µM. Regarding NPVIGPIQRAWTGSGS (also: C-terminal biotin on linker (form not given here)) [NPVI peptide, synthetic, biotinylated], the IC50 in [7] is greater than 500 µM.

B3: DHNH peptide, synthetic, biotinylated (peptide)
peptide: DHNHNLYNPWRLGSGS
modifications: also: C-terminal biotin, via GSGSK Lys side chain or biotinyl-ethylenediamine, not settled
Take B3: the IC50 in test [7] is roughly 200 µM. Take TNYLFSPNGPIARAW [TNYL-RAW peptide, non-biotinylated]: in test [9], the IC50 was roughly 0.015 µM and the “fold lower IC50 than non-biotinylated TNYL” value is 10000 fold.

B4: WHWT peptide, synthetic, biotinylated (peptide)
peptide: WHWTIEPFAITSGSGS
modifications: C-terminal biotin: on the Lys side chain of a GSGSK linker, or N-biotinyl-ethylenediamine after GSGS (which one is not stated)
For B4, the IC50 in test [4] was greater than 100 µM.

B5: SHWPI peptide, synthetic, biotinylated (peptide)
peptide: SHWPISPYSLLSGSGS
modifications: also: C-terminal biotin, via GSGSK Lys side chain or biotinyl-ethylenediamine, not settled
In [4], B5 showed a half-maximal inhibitory concentration (IC50) greater than 100 µM.

B6: DALN peptide, synthetic, biotinylated (peptide)
peptide: DALNDWLLFRPWGSGS
modifications: also: C-terminal biotin, via GSGSK Lys side chain or biotinyl-ethylenediamine, not settled
In test [7], B6 yielded an IC50 greater than 100 µM.
